Publication PMC8503651, “The Stress-Active Cell Division Protein ZapE Alters FtsZ Filament Architecture to Facilitate Division in Escherichia coli” (Frontiers in Microbiology, 2021)

B4: FtsZ (native) (natural protein, Escherichia coli, UniProt P0A9A6 1-383, looked up)
chain: MFEPMELTNDAVIKVIGVGGGGGNAVEHMVRERIEGVEFFAVNTDAQALRKTAVGQTIQIGSGITKGLGAGANPEVGRNAADEDRDALRAALEGADMVFIAAGMGGGTGTGAAPVVAEVAKDLGILTVAVVTKPFNFEGKKRMAFAEQGITELSKHVDSLITIPNDKLLKVLGRGISLLDAFGAANDVLKGAVQGIAELITRPGLMNVDFADVRTVMSEMGYAMMGSGVASGEDRAEEAAEMAISSPLLEDIDLSGARGVLVNITAGFDLRLDEFETVGNTIRAFASDNATVVIGTSLDPDMNDELRVTVVATGIGMDKRPEITLVTNKQVQQPVMDRYQQHGMAPLTQEQKPVAKVVNDNAPQTAKEPDYLDIPAFLRKQAD
notes: FtsZ, tubulin-like GTPase and cell division protein of Escherichia coli; native (no tag named); Assembles into polymers with GTP; also called Native FtsZ; wild type FtsZ; source: E. coli BL21 (λde3), purified as described (Camberg et al., 2009)

Experiments:
[1] = target: ZapE (N-terminal six histidine fusion protein) (Escherichia coli) (UniProt P64612); assay: co-sedimentation; phospholipid recruitment: Gfp-FtsZ (3 μM) with GTP (4 mM) added to ZapE (1 μM) pre-assembled with SUVs (500 μg ml^-1) and ATP (4 mM); 50 mM HEPES pH 7.5, 150 mM KCl, 20 mM MgCl2; 21,000 × g for 15 min; percent in the pellet by densitometry; 6% of Gfp-FtsZ in the pellet without …
[2] = target: Histidine-tagged Gfp-FtsZ (Escherichia coli); assay: filter retention (ultrafiltration, 100 kDa filter); ZapE or ZapE(K84A) (5 μM) with Gfp-FtsZ (10 μM) and ATP (4 mM), without GTP; 50 mM MES pH 6.5, 100 mM KCl, 10 mM MgCl2, 23°C, 10 min; filtrate and retentate by SDS-PAGE and densitometry; ZapE alone retained 33.4%, ZapE(K84A) alone 50.3%
FtsZ (native) [3] = target: B4; assay: cell-based or functional assay
[4] = substrate: Nc1ncnc2c1ncn2[C@@H]1O[C@H](COP(=O)(O)OP(=O)(O)OP(=O)(O)O)[C@@H](O)[C@H]1O; assay: phosphate release (Biomol Green), Michaelis-Menten fit; format: biochemical, Escherichia coli; details: 12 μM ZapE, ATP 0 to 5 mM, 50 mM HEPES pH 7.5, 150 mM KCl, 20 mM MgCl2, 23°C
FtsZ (native) [5] = target: B4; assay: co-sedimentation; FtsZ (6 μM) with GTP (2 mM) or without GTP, with or without ZapE or ZapE(K84A) (8 μM), with or without ATP or ATPγS (4 mM); 50 mM HEPES pH 7.5, 150 mM KCl, 20 mM MgCl2, 23°C, 10 min; 250,000 × g for 20 min; supernatants and pellets by SDS-PAGE and Coomassie; details: both partners purified
[6] = target: the molecule itself; assay: as above

Histidine-tagged Gfp-FtsZ showed a percent of total Gfp-FtsZ in the phospholipid pellet [1] of 21.6%.

B1: ZapE (N-terminal six histidine fusion protein) (enzyme, Escherichia coli, UniProt P64612 1-375, looked up)
chain: MQSVTPTSQYLKALNEGSHQPDDVQKEAVSRLEIIYQELINSTPPAPRTSGLMARVGKLWGKREDTKHTPVRGLYMWGGVGRGKTWLMDLFYQSLPGERKQRLHFHRFMLRVHEELTALQGQTDPLEIIADRFKAETDVLCFDEFFVSDITDAMLLGGLMKALFARGITLVATSNIPPDELYRNGLQRARFLPAIDAIKQHCDVMNVDAGVDYRLRTLTQAHLWLSPLHDETRAQMDKLWLALAGGKRENSPTLEINHRPLATMGVENQTLAVSFTTLCVDARSQHDYIALSRLFHTVMLFDVPVMTRLMESEARRFIALVDEFYERHVKLVVSAEVPLYEIYQGDRLKFEFQRCLSRLQEMQSEEYLKREHLAG
In the case of B1, the percent of total ZapE retained on the filter [2] is reported as 63.4% and the “maximum 90° light scatter of FtsZ (8 μM) after addition of GTP (1.5 mM), ZapE 0 to 8 μM with ATP (4 mM)” value (FtsZ (native) [3]) is reported as > 2 fold.

B2: ZapE (H6-ZapE) (Escherichia coli K-12) (protein)
chain: MQSVTPTSQYLKALNEGSHQPDDVQKEAVSRLEIIYQELINSTPPAPRTSGLMARVGKLWGKREDTKHTPVRGLYMWGGVGRGKTWLMDLFYQSLPGERKQRLHFHRFMLRVHEELTALQGQTDPLEIIADRFKAETDVLCFDEFFVSDITDAMLLGGLMKALFARGITLVATSNIPPDELYRNGLQRARFLPAIDAIKQHCDVMNVDAGVDYRLRTLTQAHLWLSPLHDETRAQMDKLWLALAGGKRENSPTLEINHRPLATMGVENQTLAVSFTTLCVDARSQHDYIALSRLFHTVMLFDVPVMTRLMESEARRFIALVDEFYERHVKLVVSAEVPLYEIYQGDRLKFEFQRCLSRLQEMQSEEYLKREHLAG
notes: full-length, N-terminal 6xHis tag kept, pET-28a, expressed in E. coli BL21 (λde3); calculated mass 44,583 Da; predominantly monomer
Molecule B2 has a Km [4] of 1700 ± 360 µM.

B3: ZapE(K84A) (N-terminal histidine fusion protein) (enzyme, Escherichia coli, UniProt P64612 1-375, looked up)
chain: MQSVTPTSQYLKALNEGSHQPDDVQKEAVSRLEIIYQELINSTPPAPRTSGLMARVGKLWGKREDTKHTPVRGLYMWGGVGRGATWLMDLFYQSLPGERKQRLHFHRFMLRVHEELTALQGQTDPLEIIADRFKAETDVLCFDEFFVSDITDAMLLGGLMKALFARGITLVATSNIPPDELYRNGLQRARFLPAIDAIKQHCDVMNVDAGVDYRLRTLTQAHLWLSPLHDETRAQMDKLWLALAGGKRENSPTLEINHRPLATMGVENQTLAVSFTTLCVDARSQHDYIALSRLFHTVMLFDVPVMTRLMESEARRFIALVDEFYERHVKLVVSAEVPLYEIYQGDRLKFEFQRCLSRLQEMQSEEYLKREHLAG
notes: ZapE of Escherichia coli with the Walker A substitution K84A (defective for ATP hydrolysis); pET-28a, site-directed mutagenesis; also called H6-ZapE(K84A); His6-zapE(K84A); source: E. coli BL21 (λde3), purified (cobalt column, sephadex G25); not shown: His6, N-terminal, kept
B3 was tested, and the percent of ZapE(K84A) retained on the filter [2] was 80.2% and the binding result (FtsZ (native) [5]) was “binds”.

B4: binds [6].
